Target: the molecule itself
Assay: SEC

B1: Plasmodium berghei phosphoglycolate phosphatase (PbPGP) (enzyme, P. berghei, UniProt A0A509AU59 1-322, looked up)
chain: MSLIVSEASQNNYFKDSENSYNSFMKEWKIEKRVNVKDLYQNFEVFFFDCDGVLWRGDTVINGAIEVINKLISDNKKVYFITNNSTKSRDTLLGKFHKLGFTCVKKEHIICTSYAIAKYFHSKEEYKSRKKKIYVIGEKGICDELDALNLVWLGSYKDNDKKVIIQDEGEIQIDNNIGAVVVAIDFNINYYKIQYAQLCINGLDAEFIVSNKDPLANFTSNQQWAGTGSIVASIEQVSFKKPKVLGKPNLFMIESVLKSLNIDLSKVVMIGDRLDTDIFFAQNCKIKSILVSTGVTDANVFLNHNNLNIKPDYFMKSILEFL
stoichiometry N: 2
